Experimental data from article PMC10720262 (2023).

Target: PfCSP full length (Plasmodium falciparum (isolate NF54), UniProt P19597)
Test: ELISA AUC

Chain of PfCSP full length (P19597 20-375): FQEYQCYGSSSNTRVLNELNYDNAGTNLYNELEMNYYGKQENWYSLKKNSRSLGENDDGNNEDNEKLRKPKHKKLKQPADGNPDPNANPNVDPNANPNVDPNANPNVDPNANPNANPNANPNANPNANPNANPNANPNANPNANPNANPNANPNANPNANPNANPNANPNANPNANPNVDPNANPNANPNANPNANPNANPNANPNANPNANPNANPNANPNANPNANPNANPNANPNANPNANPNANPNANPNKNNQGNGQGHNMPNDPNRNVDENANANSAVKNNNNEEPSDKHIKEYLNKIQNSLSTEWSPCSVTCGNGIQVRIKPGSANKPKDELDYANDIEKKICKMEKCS

Row | Binder | binding score
1 | CL-437899 (antibody, V domains shown, peptides N-terminally acetylated and C-terminally amidated) VH: QEQLVESGGGVVQPGRSLRLSCEVSGFTFSNHGLHWVRQAPGKGLEWVAIIWYDGSNKFYAESVKGRFTISRDNSKNRMYLEMNSLRVEDSAVYYCVRAYSRSSSDYKYGMDVWGQGTTVTVSS VL: DIQMTQSPSTLSASVGDRVIITCRASQSISSWLAWYQQRPGKAPELLIYKASSLETGVPSRFSGSGSGTEFTLTISSLQPDDFATYFCQQYSSYWTFGQGTKVEIK | 2.4
2 | CL-511905 (antibody, V domains shown, peptides N-terminally acetylated and C-terminally amidated) VH: QVQLVESGGGVVQPGRSLRLSCAASGFTFSGSGMHWVRQAPGRGLEWVAIIWYDGSHKYYVDSVQGRFIISRDNSKNTLYLEMNSLRVEDTAVYYCVRAYPSGSSNDKYGMDVWGQGTTVTVSS VL: not shown | 2.61
3 | CL-513094 (antibody, V domains shown, peptides N-terminally acetylated and C-terminally amidated) VH: QVQLVESGGGVVQPGRSLRLSCAASGFTFSGSGMHWVRQAPGRGLEWVAIIWYDGSHKYYVDSVQGRFIISRDNSKNTLYLEMNNLRVEDTAVYYCVRAYPSGSSNDKYGMDVWGQGTTVTVSS VL: not shown | 2.14
4 | Ky315 (antibody, V domains shown, peptides N-terminally acetylated and C-terminally amidated) VH: QVQLVESGGGVVQPGRSLRLSCAASGFTLSNYGVHWVRQAPGTGLEWVALIWYDGSNKFYADSVKGRFTISRDNSMDIVYLQMNNLRAEDTALYYCVRPGIAAAGSNYYAMDVWGQGTAVTVSS VL: EIVMTQSPATLSMSPGERATLSCRASQSVGSDLAWFQQKPGQAPRLLIYGAFTRATGIPARFSGSGSGSEFTLTISSLQSEDFAVYYCQQYNRWWTFGQGTKVEMK | 2.7
5 | CL-513083 (antibody, V domains shown, peptides N-terminally acetylated and C-terminally amidated) VH: QVQLVESGGGVVQPGRSLRLSCAASGFTFSNYGMHWVRQAPGRGLEWVAIIWYDGSNKYYEDSVKGRFTISRDNSKNTLYLQMNSLRAEDTAVYYCARAQWLDQRHYHYTMDVWGQGTTVTVSS VL: not shown | 2.24
6 | Ky224 (antibody, V domains shown, peptides N-terminally acetylated and C-terminally amidated) VH: QVQLVESGGGVVQPGRSLRLSCAASGFTFSVYGMHWVRQAPGKGLEWVAVIWYDGSNKIYADSVKGRFTISRDNSKNTLYLQMDSLSAADTAVYYCAKIGSSSFDYWGQGTLVIVSS VL: DIVMTQTPLSSPVTLGQPASISCRSSQSLVHSNGITYLSWLQQRPGQPPRLLLYEISNRFSGVPDRFSGSGTGTDFTLKISRVEAEDVGVYYCMQTTQFPITFGQGTRLEIK | 2.2
7 | CL-512871 (antibody, V domains shown, peptides N-terminally acetylated and C-terminally amidated) VH: QVLLVESGGGVVQPGRSLRLSCAASGFTFSNYGMHWVRQAPGKGLEWVALIRYDGINKFYADSVKGRFTISRDNSENTLYMQINSLRAEDTAMYYCAKAYNTSSDYYYGMDVWGQGTTVTVSS VL: DIQMTQSPSTLSASVGDRVTITCRASQSISTWLAWYQQKPGKAPKLLIYKASRLESGVPSRFSGSGSGTEFTLTISSLQPDDLATYYCQQFNSYWTFGQGTKVEIR | 2.21
8 | CL-532151 (antibody, V domains shown, peptides N-terminally acetylated and C-terminally amidated) VH: QVQLVESGGGVVQPGGSLRLSCAASGFTFSGSGMHWVRHAPGKGLEWVAIIWYDGSNKFYADSVKGRFTISRDNSRNTLYLQMNSLRAEDTAVYYCARAYVSGNYGDKYGMDVWGQGTTVTVSS VL: DIQMTQSPSTLSASVGDRVTITCRASQSISNWLAWFQQKPGKAPKLLIYKASSLESGVPSRFSGSGSGTEFTLTINSLQPDDFATYFCQQYNYYWTFGQGTKVEIK | 2.53
9 | Ky15.2 (antibody, V domains shown, peptides N-terminally acetylated and C-terminally amidated) VH: QVLLVESGGGVVQPGTSLRLSCVASGFSFSTYGMHWVRQSPGKGLEWVAIIWYDGGNKFYADSVQGRFTVSRDNSKNTLYLQMNSLRAEDTAVYYCAKAYRTSLDKKYGMDVWGQGTTVTVSS VL: DIQMTQSPSTLSASVGDRVTITCRASQSIASWLAWYQQKPGKAPKLLIYKASSLESGVPSRFSGSGSGTEFTLTISSLHPDDFATYFCQQFTSYWTFGQGTKVEIK | 2.4
10 | CL-460406 (antibody, V domains shown, peptides N-terminally acetylated and C-terminally amidated) VH: QIQLVESGGGVVQPGRSLRLSCAASGFTFSNSGMHWIRQAPGKGLEWVTIIWYDGSNKYYADSVKGRFTISRDNSKNTLYLQMNSLRAEDTAIYYCARAYSSSSDDYYGMDVWGQGTTVTVSS VL: DIQMTQSPSTLSASVGDRVTITCRASQSISSWLAWYQQKPGKAPKLLIYKASSLESGVPSRFSGSGSGTDFTLTISSLQPDDFATYYCQQFYNYWTFGQGTKVEIT | 2.3
11 | CL-449007 (antibody, V domains shown, peptides N-terminally acetylated and C-terminally amidated) VH: QVQVVESGGGVVQPGRSLRLSCAASGFTFSNYGMHWVRQAPGKGLEWVAIIWYDGSHKFYANSVKGRFTISRDNSKNTLFLQMNSLRAEDTAVYYCARVGNGNSDWTDAFDIWGQGTMVTVSS VL: DIQMTQSPSTLSASVGDRVTITCRASQSINSWLAWYQQKPGKAPKLLIYKASSLESGVPSRFSGSGSGTEFTLTISSLQPDDFATYYCQQYNTYWTFGQGTKVEIK | 2.4
12 | CL-438096 (antibody, V domains shown, peptides N-terminally acetylated and C-terminally amidated) VH: QVVLVESGGGVVQPGRSLRLSCEASGFIFSSRGMHWVRQTPGKGLEWVAIIWYDGSNKFYADSVKGRFTISRDNSKNTLYLQMNSLRAEDTAVYYCARSYRTSLDKKYGMDVWGQGTTVTVSS VL: DIQMTQSPSTLSASVGDRVTITCRASQSISSWLAWYQQKPGKAPKLLIYKASSLESGVPSRFSGSGSGTEFTLTISSLHPDDFATYFCQQYNSYWTFGQGTKVEIK | 2.6
13 | CL-510373 (antibody, V domains shown, peptides N-terminally acetylated and C-terminally amidated) VH: QVQLVESGGGVVQPGRSLKLSCAASGFTFSSYGMHWVRQAPGRGLEWVSIIWYDGSNKFYSDSVQGRFTISRDDSKNTLYLQMNSLRAEDTAMYYCAMVANYTISSGAFDIWGHGTMVTVSS VL: DIQMTQSPSTLSASVGDRVTITCRASQSISNWLAWYQQKSGKAPKLLIYKASSLESGVPSRFSGSGSGTEFTLTISSLQPDDFATYFCQQYKTYWTFGQGTKVEIK | 2.37
14 | CL-444469 (antibody, V domains shown, peptides N-terminally acetylated and C-terminally amidated) VH: QVQLVESGGGVVQPGRSLRVSCEVSGLTFSNYGMHWVRQAPGKRLEWVAIIWYDGSNKYYADSVKGRFTISRDNSKNTLYLQMNSLRAEDTAVYYCARSYGSGSRGDYYGMDVWGQGTTVTVSS VL: DIQMTQSPSTLSASVGDRVTITCRASQSISSWLAWFQQKPGKAPKLLIYKASSLESGVPSRFSGSGSGTEFTLTISSLQPDDFATYYCQQYYSYWTFGQGTKVEIK | 2.4
15 | CL-513809 (antibody, V domains shown, peptides N-terminally acetylated and C-terminally amidated) VH: QVQLVESGGGVVQPGRSLRLSCAASGFIFSNYGMYWVRQTPDKGLEWVALIWYDGNNKFYSDSVKGRFTVSRDNSKNTLYLQMNSLRDEDTALYYCARAGYFYGSGSSLDKWGQGTLVTVSS VL: DIQMTQSPSTLSASVGDRVSITCRASQSISIWLAWYQQKPGKAPKLLIYKASSLESGVPSRFSGSGSGTEFTLTISSLQPDDFATYYCQQYNSYWTFGQGTKVEIK | 2.34
16 | CL-444691 (antibody, V domains shown, peptides N-terminally acetylated and C-terminally amidated) VH: QVQLVESGGGVVQPGRSLRLSCAASGFTFSNYGMHWVRQAPGKGLEWVAVIWYDGSNKFYADSVKGRFTISRDNSKNTLYLQMNSLRAEDTAVYYCARDGGYNKNSGSYGWFDPWGQGTLVTVSS VL: DIQMTQSPSTLSASVGDRVTITCRASQSVSTWLAWYQQKPGKAPKLLIYKASSLESGVPSRFSGSGSGTEFTLTISSLQPDDFATYYCQQYNSYFTFGQGTRLEIK | 2.3
17 | CL-510418 (antibody, V domains shown, peptides N-terminally acetylated and C-terminally amidated) VH: QVQLVESGGGVVQPGQSLRLSCEASGFTFSNYGMHWVRQAPVKGLEWVAIIWFDGSYKYYADSVKGRFTVSRDNSKNTLYLQMDSLRAEDTAVYYCARARKGQRSDYYGSETSYTFDNWGQGTLVTVSS VL: DIQMTQSPSTLSASVGDRVTITCRASQSINSWLAWYQQKPGKAPKFLIYKASILESGIPSRFSGSGSGTEFTLTISSLQPDDFATYYCQQYNSYWTFGQGTKVEIK | 2.46
18 | CL-449869 (antibody, V domains shown, peptides N-terminally acetylated and C-terminally amidated) VH: QVQLVESGGGAVQPGRSLRLSCAASGFTFSYNGMHWVRQAPGKGLEWVAIIWYDGSNKFYADSVKGRFTISRDNSKDTLYLEMNSLRAEDTAIYYCARAWNYDDKKYSMDVWGQGTTVTVSS VL: DIQMTQSPSTLSASVGDRVTITCRASQSISSWLAWYQQKPGKAPKLLIYKASSLESGVPSRFSGSGSGTEFTLTISSLQPDDFATYYCQQYNYFWTFGQGTKVEIR | 2.2
19 | CL-510020 (antibody, V domains shown, peptides N-terminally acetylated and C-terminally amidated) VH: QVQLVESGGGVVQPGRSLRLSCAASGFTFSSFGMYWVRQAPGKGLEWVALIWYDGSNQYYADSVKGRFTISRDNSKNTLYLQMNSLRAEDTAVYYCARAGYFYGSGSPLDYWGQGTLVTVPS VL: DIQMTQSPSTLSASVGDGVTITCRASQSISSWLAWYQQKPGKAPKLLIYMASSLESGVPSRFSGSGSGTEFTLTISSLQPDDFATYYCQQYYNYWTFGQGTKVEIK | 2.45
20 | CL-514174 (antibody, V domains shown, peptides N-terminally acetylated and C-terminally amidated) VH: QVQLVESGGGVVQPGRSLRLSCVASGFTFSGSGMHWVRQSPGKGLEWVAIIWYDGSNKFYADSVQGRFTISRDNSKNTLYLQMNSLRVEDTGVYYCARAYLSGNYGDKYGMDVWGQGTTVTVSS VL: DIQMTQSPSTLSASVGDRVTITCRASQSISSWLAWFQQKPGKAPKLLIYKASSLESGVPSRFSGSGSGTEFTLTINSLQPDDFATYFCQQYNYYWTFGQGTKVEIK | 2.12
21 | CL-508731 (antibody, V domains shown, peptides N-terminally acetylated and C-terminally amidated) VH: QVQLVESGGGVVQPGRSLRLSCVASGFTFSNNGMHWVRQAPGKGLEWVAIIWHDGSNKFYAESVRGRFTISRDNSNNTLYLQMNSLRAEDTAVYYCARDRMFGSGSWNYFDPWGQGTLVTVSS VL: EIVLTQSPATLSLSPGERATLSCRASQSISTYLAWYQQKPGQAPRLLIYDASNRATGIPARFSGSGSGTDFTLTISSLEPEDFAVYYCQQRSYWWTFGQGTKVEIK | 2.31
22 | CL-509993 (antibody, V domains shown, peptides N-terminally acetylated and C-terminally amidated) VH: QVQLVESGGGVVQPGRSLRLSCVASGFTFSNNGMHWVRQAPGKGLEWVAIIWYDGSNKYYADSVKGRFTISRDNSNNTLYLQMNSLRAEDTAVYYCARDRMFGSGTWNYFDPWGQGTLVTVSS VL: EIVLTQSPATLSLSPGERATLSCRASQSVTTYLAWYQQKPGQAPRLLIYDASNRATGIPARFSGSGSGTDFTLTISSLEPEDFAVYYCQQRSNWWTFGQGTKVEIK | 2.15
23 | CL-509930 (antibody, V domains shown, peptides N-terminally acetylated and C-terminally amidated) VH: QVQLVESGGGVVQPGRSLRLSCAASGFTFSSYGMHWVRQAPGKGLEWVAIIWHDGSNKYYADSVKGRFTISRDNSKNTLYLQMNSLRAEDTAVYYCARDYSSFYFDYWGQGTLVTVSS VL: not shown | 1.99
